{"source": "the nanobody polyreactivity screen of Harvey et al. (2022)"}
{"assay": "yeast display, Sf9 membrane polyspecificity reagent, FACS + sequencing; frameworks hold sequencing errors", "outline": "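Using colony PCR, genes from sorted yeast display clones were amplified, then sequenced on MiSeq at 2 × 250 and filtered by CDR length. The clones had been stained with 10% biotinylated, detergent-solubilized Sf9 membrane reagent for 1 hour at 4 °C and sorted by FACS into low and high (top ~1%) gates on anti-HA and streptavidin fluorescence. Polyreactivity labels come from the gate of origin.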"}
{"sequence": "QVQLVESGGGLVQAGGSLRLSCAASGLILSRNTMGWYRQAPGKERELVAAITRRGGSTYYADSVKGRFTISRDNAKNTVYLQMNSLKPEDTAVYYCRLKVGTTSRWSYDYWGQGTQVTVSS", "polyreactivity (PSR sort gate)": "high polyreactivity"}
{"sequence": "QVQLVESGGGLVQAGGSLRLSCAASGLILSSNAMGWYRQAPGKERELVATINRSGASTYYADSVKGRFTISRDNAKNTVYLQMNSLKPEDTAVYYCNTATSRAYRYDYWGQGSQVTVSS", "polyreactivity (PSR sort gate)": "low polyreactivity"}
{"sequence": "QVQLVESGGGLVQAGGSLRLSCAASGLILVHYAMGWYRQAPGKERELVAAISAGGGSTYYADSVKGRFTISRDNAKNTVYLQMTSLKPEDTAVYYCNARVVNYFRPRTGAREYDYWGQGTQVTVSS", "polyreactivity (PSR sort gate)": "high polyreactivity"}
{"sequence": "QVQLVESGGGLVQAGGSLRLSCAASGLILVYYAMGWYRQAPGKERELVAAITPGGSTKYADSVKGRFTISRDNAKNTVYLQMNSLKPEDTAVYYCYALSGPYWYSVYQSHQDDYWGQGTQVTVSS", "polyreactivity (PSR sort gate)": "low polyreactivity"}
{"sequence": "QVQLVESGGGLVQAGGSLRLSCAASGLILYWYAMGWYRQAPGKERELVAAISISGGSTYYADSVKGRFTISRDNAKNTVYLQMNSLKPEDTAVYYCAAVYFYSWEGDGDYWGQGTQVTVSS", "polyreactivity (PSR sort gate)": "low polyreactivity"}
{"sequence": "QVQLVESGGGLVQAGGSLRLSCAASGLILYYYDMGWYRQAPGKERELVAAISWNGDDTYYADSVKGRFTISRDNAKNTVYLQMNSLKPEDTAVYYCAAEGPPQTDDYWGQATQVTVSS", "polyreactivity (PSR sort gate)": "high polyreactivity"}
{"sequence": "QVQLVESGGGLVQAGGSLRLSCAASGLISIFYTMGWYRQAPGKERELVAAITSGGSSTYYADSVKGRFTISRDNAKNTVYLQMNCLIPVDTAVYYCAAEPGFYYYWGQGTQVTVSS", "polyreactivity (PSR sort gate)": "low polyreactivity"}
{"sequence": "QVQLVESGGGLVQAGGSLRLSCAASGLISWLYVMGWYRQAPGKERELVAAIRYSGGRTYYADSVKGRFTISRDNAKNTVYLQMNSLKPEDTAVYYCAAEEQVVKAHGDYWGQGTQVTVSS", "polyreactivity (PSR sort gate)": "low polyreactivity"}
{"sequence": "QVQLVESGGGLVQAGGSLRLSCAASGLIVGGYTMGWYRQAPGKERELVAAIDSGGSTKYADSVKGRFTISRDNAKNTVYLQMNSLKPEDTAVYYCAARDYYAWRYRYHHEVSEFDYWGQGTQVTVSS", "polyreactivity (PSR sort gate)": "low polyreactivity"}
{"sequence": "QVQLVESGGGLVQAGGSLRLSCAASGLIYWYAMGWYRQAPGKERELVAAISSNGGSTYYADSVKGRFTISRDNAKNTVYLQMNSLKPEDTAVYYCAAEDYYIYREPYDYWGQGTQVTVSS", "polyreactivity (PSR sort gate)": "low polyreactivity"}
{"sequence": "QVQLVESGGGLVQAGGSLRLSCAASGLIYYRNAMGWYRQAPGKERELVAAISSDGSTYYADSVKGRFTISRDNPKNTVYLQMNSLKAEDTAVFYCAADYREFDAYGAARTLDFDYWGQGTQVTVSS", "polyreactivity (PSR sort gate)": "low polyreactivity"}
{"sequence": "QVQLVESGGGLVQAGGSLRLSCAASGLIYYRYAMGWYRQAPGKERELVAAITTNGARTYYADSVKGRFTISRDNAKNTVYLQMNSLKPEDTAVYYCAAYGAGKFWAEHNYWGQGTQVTVSS", "polyreactivity (PSR sort gate)": "high polyreactivity"}
{"sequence": "QVQLVESGGGLVQAGGSLRLSCAASGLNFVQYVMGWYRQATGKERELVAAITDDGNTYYADSVKGRFTISRDNAKNTVYLQMNSLKPEDTEVYYCNAVLRSYDFWPGYGYWGQGTQVTVSS", "polyreactivity (PSR sort gate)": "low polyreactivity"}
{"sequence": "QVQLVESGGGLVQAGGSLRLSCAASGLNFWLNAMGWYRQAPGKERELVAAISRGGSTNYADSVKGRFTNSRDNAKNTVYLQMNSLKPEDTAVYYCAAGSRRAACYDYSYPYGYWGQGSQVTVSS", "polyreactivity (PSR sort gate)": "high polyreactivity"}
{"sequence": "QVQLVESGGGLVQAGGSLRLSCAASGLPFRFNALGWNRQAPGKERELVARISAGGGSTYYADSVKGRFTISRDNAKNTVYLQMNSLKPEDTAVYYCAVDKSTEFSSGPHVAGDDSWGQGTQVTVSS", "polyreactivity (PSR sort gate)": "low polyreactivity"}
{"sequence": "QVQLVESGGGLVQAGGSLRLSCAASGLSSGFNVMGWYRQAPGKERELVAAIRSTGSPKYADSVKGRFTISRDNAKNTVYLQMNSLKPEDTAVYYCFRYSFYLNYWGQGTQVTVSS", "polyreactivity (PSR sort gate)": "high polyreactivity"}
{"sequence": "QVQLVESGGGLVQAGGSLRLSCAASGLTCTRNAMGWYRQAPGKEREFVAAIRWSAGSTYYADSVKGRFTISRDNAKNTVYLQMNSLTPEDTAVSYCNAALNVSGHYPNDYWGQGTQVTVSS", "polyreactivity (PSR sort gate)": "low polyreactivity"}
{"sequence": "QVQLVESGGGLVQAGGSLRLSCAASGLTFADYAMGWYRQAPGKERELVAAISRRGGSTYYADSVKGRFTISRDNAKNTVYLQMNSLKPEDTAVYYCAAYAYDVAFKRYKFDYWGQGTQVTVSS", "polyreactivity (PSR sort gate)": "high polyreactivity"}
{"sequence": "QVQLVESGGGLVQAGGSLRLSCAASGLTFAGYAMGWYRQAPGKERELVAAITYSTGRTYYADSVKGRFTISRDNAKTTVYFQMNSLKPEDTAVYYCAALLRGQDRTMDYWGQGTQVTVSS", "polyreactivity (PSR sort gate)": "high polyreactivity"}
{"sequence": "QVQLVESGGGLVQAGGSLRLSCAASGLTFASYAMGWYRQAPGKERELVAAISSSGRTYYADSVKGRFTISRDNAKNTVYLQMNSLKPEDTAVYYCATRGLSRYYDYYYWGQGTQVTVSS", "polyreactivity (PSR sort gate)": "high polyreactivity"}
{"sequence": "QVQLVESGGGLVQAGGSLRLSCAASGLTFASYAMGWYRQAPGKERELVARISRSGGSTYYADSVKGRFTISRDNAKNTVYLQMNSLKPEDTAVYYCAADYIFRRYPVGGIYDYDYWGQGTQVTVSS", "polyreactivity (PSR sort gate)": "high polyreactivity"}
{"sequence": "QVQLVESGGGLVQAGGSLRLSCAASGLTFAWYAMGWYRQAPGKARELVAVISNGGSTNDADSVKRRFTISRDNAKNTVYLQMNSLKPDDTAVYYCAAGWVWSGNDYYYWGQGTQVTVSS", "polyreactivity (PSR sort gate)": "low polyreactivity"}
{"sequence": "QVQLVESGGGLVQAGGSLRLSCAASGLTFAYYAMGWYRQAPGKDRELVAAISWNGGRTYYADSVKGRFTISRDNAKNTVYLQMNSLKPEDTAVYYCAAQVTSSFYWGQGTQVTVSS", "polyreactivity (PSR sort gate)": "high polyreactivity"}
{"sequence": "QVQLVESGGGLVQAGGSLRLSCAASGLTFAYYAMGWYRQPPGKERELVAAITSGDGTNYADSVKGRFTISRDNAKNTVYLQMNSLKPEDTAVYYCATDTWSPGYDYWGQGTQVTVSS", "polyreactivity (PSR sort gate)": "low polyreactivity"}
{"sequence": "QVQLVESGGGLVQAGGSLRLSCAASGLTFAYYVMGWYRQAPGKERELVATITRGGDTYYADSVKGRFTISRANAKNTVYVQMNSLTPEDTAVYYCNAVWRVKYRRGLDYWGQGTQVTVSS", "polyreactivity (PSR sort gate)": "high polyreactivity"}
{"sequence": "QVQLVESGGGLVQAGGSLRLSCAASGLTFAYYVMGWYRQAPGKERELVATITRGGDTYYADSVKGRFTISRDNAKITVYLQMYSLKPEDTAVYYCNAYLRSGSMDYWGQGTQVTVSS", "polyreactivity (PSR sort gate)": "high polyreactivity"}
{"sequence": "QVQLVESGGGLVQAGGSLRLSCAASGLTFDGNTMGWYRQAPGKERELVAAISIDGGNTYADSVKGRFTISRDNAKNTVYLQMNSLKPEDTAVYYDYWGQGTEVTVSS", "polyreactivity (PSR sort gate)": "low polyreactivity"}
{"sequence": "QVQLVESGGGLVQAGGSLRLSCAASGLTFDNNAMGWYRQAPGTERELVAAISYRGSSTYYADSVKGRFTISRDNAKNTVYLQMNSLKPEDTAVYYCAADVVDLGRFDYWGQRTQVTVSS", "polyreactivity (PSR sort gate)": "low polyreactivity"}
{"sequence": "QVQLVESGGGLVQAGGSLRLSCAASGLTFDPYAMGWYRQAPGKERELVADISDGASTYYADSVKGRFTMSRDNAKNTVYLQMNSLKPEDTAVYYCNVDVGWYAFTDAYDYWGQGTHVTVSS", "polyreactivity (PSR sort gate)": "low polyreactivity"}
{"sequence": "QVQLVESGGGLVQAGGSLRLSCAASGLTFDRYAMGWYRQAPGKERELVAAISGSGSSTYYADSAKGRFTISRDNAKNTVYLQMNSLKPEDTAVYYCAADRDLGYDTRYNYWGQGTQVTVSS", "polyreactivity (PSR sort gate)": "low polyreactivity"}
{"sequence": "QVQLVESGGGLVQAGGSLRLSCAASGLTFDYYAMGWYRQAPGKERELVAAIDWSGGSTYYADSVKGRFTISRDNAMNTVYFQMNSLKPEDSAVYYCATESDDSGMDYWGQGTQVTVSS", "polyreactivity (PSR sort gate)": "low polyreactivity"}
{"sequence": "QVQLVESGGGLVQAGGSLRLSCAASGLTFDYYAMGWYRQAPGKERELVAAISIGGSTNYADSVKGRFTISRDNAKNNVYLQMNSLKPEDTAVYYCAAQGYLRLRTHFNYWGQGTQVTVSS", "polyreactivity (PSR sort gate)": "low polyreactivity"}
{"sequence": "QVQLVESGGGLVQAGGSLRLSCAASGLTFDYYVMGWYRQAPGKERELVATISWSGDITYYADSVKGRFTISRDNAKNTVYLQMNSLKPEDTAVYYSATDKSYSSWSAQYDYWGQGTQVTVSS", "polyreactivity (PSR sort gate)": "low polyreactivity"}
{"sequence": "QVQLVESGGGLVQAGGSLRLSCAASGLTFEWYAMGWYRQAPGKERELVAAISWNGGSTYYADSVKGRFTISRDNAKNTVYLQMNSLKPEDTAVYYCATSSPRRYYWGQGTLVTVSS", "polyreactivity (PSR sort gate)": "high polyreactivity"}
{"sequence": "QVQLVESGGGLVQAGGSLRLSCAASGLTFEYNAMGWYRQAPGKERELVAAITSGDNTYYADSVKGRITISRDNAKNTVYLQMNSLKPEDTAVYYCAKYRWNWRYVSRGDSWGQGTQVTVSS", "polyreactivity (PSR sort gate)": "high polyreactivity"}
{"sequence": "QVQLVESGGGLVQAGGSLRLSCAASGLTFFRNAMGWYRQAPGKEREFVAGITSTDGSTYYADSVKGRFTISRDNAKNTVYLQMNSLKPEDTAVYYCAAAYRVRGRTYDAWGQGTQVTVSS", "polyreactivity (PSR sort gate)": "high polyreactivity"}
{"sequence": "QVQLVESGGGLVQAGGSLRLSCAASGLTFFYYAMGWYRQAPGKERELVAGISRSGGSTYYADSVKGRFTISRDNAKNTVYLQMKSLKPEDTAVYYCAKRTLVASYIYREGEYWGQGTQVTVSS", "polyreactivity (PSR sort gate)": "high polyreactivity"}
{"sequence": "QVQLVESGGGLVQAGGSLRLSCAASGLTFGAYAMGWYRQAPGKEREFVAAITYSGGSTNYADSVKGRFTISRDNAKNTVYLQMISLKPEDTAVYYCNAGYYSPWAFYPYDYWGQGTQVTVSS", "polyreactivity (PSR sort gate)": "high polyreactivity"}
{"sequence": "QVQLVESGGGLVQAGGSLRLSCAASGLTFGAYAMGWYRQAPRKEREFVAAITYSGGSSNYADSVKGRFTISRDNAKNTVYLQMNSLKPEDTAVYYCNAGYYSPWAFYPYDYWGQGTQVTVSS", "polyreactivity (PSR sort gate)": "high polyreactivity"}
{"sequence": "QVQLVESGGGLVQAGGSLRLSCAASGLTFGDYALGWYRQAPGKDRELVAVISRSGGSTYYADSVKGRFTISRDNAKNTVYLQMNSLKPEDTAVYYCAAEYYSYRYDGDYWGQGTQVTVSS", "polyreactivity (PSR sort gate)": "low polyreactivity"}
{"sequence": "QVQLVESGGGLVQAGGSLRLSCAASGLTFGDYVMGWYRQAPGKERELVATITSDGGTTYADSVKGRFTISRDNAKNTVYLQMNSLKPEDTAVYYCAAGVTGPSDDYDYWGQGTQVTVSS", "polyreactivity (PSR sort gate)": "low polyreactivity"}
